17 molecules from US20220177587A1, “METHODS AND USES OF VARIANT CD80 FUSION PROTEINS AND RELATED CONSTRUCTS” (Alpine Immune Sciences, Inc., priority 2018, published 2022) can be followed below.

Substitutions are numbered along the chain they refer to. Numbers in names are those of the source. Read-outs that look alike come from different tables or passages of the source.

Assay [1] concerns the target CD28 (human) (UniProt P10747).
Assay [2] deals with human PD-L1 (human) (UniProt Q9NZQ7).
Target sequence in this assay (Q9NZQ7 19-290): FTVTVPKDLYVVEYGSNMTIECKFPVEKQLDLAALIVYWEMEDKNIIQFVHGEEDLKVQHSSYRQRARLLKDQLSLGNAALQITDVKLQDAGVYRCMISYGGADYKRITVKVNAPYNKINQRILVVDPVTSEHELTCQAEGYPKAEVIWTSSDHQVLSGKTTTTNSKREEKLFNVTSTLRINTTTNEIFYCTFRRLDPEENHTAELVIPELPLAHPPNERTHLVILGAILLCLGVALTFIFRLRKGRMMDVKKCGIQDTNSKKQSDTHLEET
Assay [3] has as its target CD28 (human) (UniProt P10747). The experiment in a line: flow cytometry, Jurkat cells (CD28). (Flow cytometry measures light scatter and fluorescence of single cells or particles in a stream.)
The target in assay [4] is human CTLA-4 (human) (UniProt P16410). As to the kind of experiment: flow cytometry, CHO cells stably expressing CTLA4.
human CTLA-4 (human), sequence (P16410 36-223): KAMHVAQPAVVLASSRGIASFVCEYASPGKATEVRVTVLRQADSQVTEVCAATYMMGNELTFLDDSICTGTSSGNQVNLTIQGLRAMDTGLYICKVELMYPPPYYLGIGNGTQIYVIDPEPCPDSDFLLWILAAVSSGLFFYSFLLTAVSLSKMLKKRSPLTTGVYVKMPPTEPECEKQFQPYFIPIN
Assay [5] concerns the target human PD-L1 (human) (UniProt Q9NZQ7). The experiment in a line: flow cytometry, CHO cells stably expressing PD-L1.
Target sequence in this assay (Q9NZQ7 19-290): as the sequence (Q9NZQ7 19-290) above
Assay [6] shares this target. As to the kind of experiment: flow cytometry, MFI on CHO/PD-L1 over MFI on Jurkat (CD28).
Target sequence in this assay (Q9NZQ7 19-290): as above
For assay [7], the target named is CD28 (human) (UniProt P10747). The source holds these as a separate data set.
In assay [8] the target is human PD-L1 (human) (UniProt Q9NZQ7). This is another data set of the same source.
Target sequence in this assay (Q9NZQ7 19-290): as above
Assay [9] addresses CD28 (human) (UniProt P10747). This is another data set of the same source.
Assay [10] addresses human PD-L1 (human) (UniProt Q9NZQ7). This is another data set of the same source.
Target sequence in this assay (Q9NZQ7 19-290): as above
The target of assay [11] is CD28 (human) (UniProt P10747). This is another data set of the same source.
The target of assay [12] is human PD-L1 (human) (UniProt Q9NZQ7). The source holds these as a separate data set.
Target sequence in this assay (Q9NZQ7 19-290 limits assumed): as the sequence (Q9NZQ7 19-290) above
Assay [13] shares this target. As to the kind of experiment: flow cytometry, MFI on PD-L1 cells over MFI on CD28 cells.
Target sequence in this assay (Q9NZQ7 19-290): as above
The target in assay [14] is CD28 (human) (UniProt P10747). The source holds these as a separate data set.
For assay [15], the target named is human PD-L1 (human) (UniProt Q9NZQ7). This is another data set of the same source.
In assay [16] the target is CD28 (human) (UniProt P10747). This is another data set of the same source.
The target in assay [17] is human PD-L1 (human) (UniProt Q9NZQ7). The source holds these as a separate data set.
The target in assay [18] is human CTLA-4 (human) (UniProt P16410). As to the kind of experiment: flow cytometry, CHO/CTLA4 cells; MFI over CD80 WT IgV-Fc.
In assay [19] the target is human PD-L1 (human) (UniProt Q9NZQ7). As to the kind of experiment: flow cytometry, CHO/PD-L1 cells; MFI over CD80 WT IgV-Fc.
Assay [20] concerns the target CD28 (human) (UniProt P10747). The experiment in a line: flow cytometry, Jurkat cells (CD28); MFI over CD80 WT IgV-Fc.
Assay [21] has as its target CD28 (human) (UniProt P10747). This is another data set of the same source.
Assay [22] addresses human PD-L1 (human) (UniProt Q9NZQ7). The experiment in a line: flow cytometry, HEK293 cells transfected with human PD-L1.
The target is the same in assay [23]. The experiment in a line: flow cytometry, HEK293 cells transfected with full-length human PD-L1, PE anti-human Fc.

B1: CD80 IgV-Fc E35D/M47L/V68M/A71G/L85Q/D90G (Fc fusion)
chain: VIHVTKEVKEVATLSCGHNVSVEELAQTRIYWQKDKKMVLTMMSGDLNIWPEYKNRTIFDITNNLSIMILGLRPSDEGTYECVVQKYEKGAFKREHLAEVTLSVKAD
Consider B1, for which the RLU at 5.0 nM: Fold Increase over WT CD80-IgV-Fc in the assay with CD28 (human) [1] and with human PD-L1 (human) [2] was 2.3 fold in each case. Moreover, the figures for the Fold change to WT with CD28 (human) [3] and in the assay with human PD-L1 (human) [5] were 33.9 fold and 202 fold, respectively. For the same molecule, the MFI at 33.3 nM with CD28 (human) [3] worked out at 1400 MFI; with human CTLA-4 (human) [4], 10300 MFI; with human PD-L1 (human) [5], 16800 MFI. In the assay with human CTLA-4 (human) [4], this molecule had a Fold change to WT CD80 of 10.1 fold. Also, in the assay with human PD-L1 (human) [6], the Ratio of PDL1:CD28 worked out at 12.

B2: CD80 IgV-Fc T13R/Q33R/E35D/M38I/M47L/V68M/E95V/L97Q (Fc fusion)
chain: B1 chain with T13R, Q33R, M38I, G71A, Q85L, G90D, E95V, L97Q
For B2, the RLU at 5.0 nM: Fold Increase over WT CD80-IgV-Fc with CD28 (human) [7] and with human PD-L1 (human) [8] was 2.5 fold throughout.

B3: CD80 E35D/L97R IgV-Fc (Fc fusion)
chain: B1 chain with L47M, M68V, G71A, Q85L, G90D, L97R
Regarding B3, the IL2-luciferase reporter (RLU), fold increase over WT CD80-IgV-Fc at 5.0 nM in the assay with CD28 (human) [9] and with human PD-L1 (human) [10] was 2.3 fold each time.

B4: CD80 E35D/D46E/M47I IgV-Fc (Fc fusion)
chain: B1 chain with D46E, L47I, M68V, G71A, Q85L, G90D
For B4, the IL2-luciferase reporter (RLU), fold increase over WT CD80-IgV-Fc at 5.0 nM with CD28 (human) [9] and in the assay with human PD-L1 (human) [10] was 4.8 fold each time.

B5: variant CD80 IgV-Fc H18Y/E35D/A71G/D90G (Fc fusion)
chain: B1 chain with H18Y, L47M, M68V, Q85L
Take B5: the IL-2 luciferase reporter, fold increase over WT CD80-IgV-Fc at 5.0 nM with CD28 (human) [11] and with human PD-L1 (human) [12] was 3.81 fold throughout. In addition, the Fold change to WT CD80 in the assay with CD28 (human) [3] came out at 29.8 fold; in the assay with human CTLA-4 (human) [4] it was 19 fold; with human PD-L1 (human) [5], 196 fold. For the same molecule, the MFI at 33.3 nM came to 1310 MFI with CD28 (human) [3], 25900 MFI with human CTLA-4 (human) [4] and 8520 MFI with human PD-L1 (human) [5]. Besides, the Ratio of PDL1:CD28 in the assay with human PD-L1 (human) [13] came to 6.5.

B6: CD80 IgV-Fc E35D/M47V/N48K/V68M/A71G/L85M (Fc fusion)
chain: B1 chain with L47V, N48K, Q85M, G90D
For B6, the RLU at 5.0 nM: Fold Increase over WT CD80-IgV-Fc with CD28 (human) [7] and in the assay with human PD-L1 (human) [8] was 3.6 fold in each case.

B7: CD80 IgV-Fc H18Y/E35D/M47V/V68M/L85M (Fc fusion)
chain: B1 chain with H18Y, L47V, G71A, Q85M, G90D
B7: the RLU at 5.0 nM: Fold Increase over WT CD80-IgV-Fc in the assay with CD28 (human) [7] was 2.5 fold; in the assay with human PD-L1 (human) [8], 2.5 fold; with CD28 (human) [14], 6.4 fold; in the assay with human PD-L1 (human) [15], 6.4 fold. Also, the Fold change to WT CD80 in the assay with CD28 (human) [3] was 33.7 fold; in the assay with human CTLA-4 (human) [4], 18.5 fold; with human PD-L1 (human) [5] it was 43.6 fold. Besides, the MFI at 33.3 nM with CD28 (human) [3] was found to be 1390 MFI; with human CTLA-4 (human) [4], 19300 MFI; with human PD-L1 (human) [5], 3090 MFI. The Ratio of PDL1:CD28 in the assay with human PD-L1 (human) [6] amounted to 2.2.

B8: CD80 E35D/M47V IgV-Fc (Fc fusion)
chain: B1 chain with L47V, M68V, G71A, Q85L, G90D
For the molecule B8, the IL2-luciferase reporter (RLU), fold increase over WT CD80-IgV-Fc at 5.0 nM in the assay with CD28 (human) [9] and with human PD-L1 (human) [10] was 3.4 fold throughout.

B9: variant CD80 IgV-Fc (inert) H18V/A26P/E35D/M47L/V68M/A71G (Fc fusion)
chain: B1 chain with H18V, A26P, Q85L, G90D
B9: the IL2-luciferase reporter, fold increase in RLU over WT CD80-IgV-Fc at 5.0 nM with CD28 (human) [16] and with human PD-L1 (human) [17] was 4.7 fold throughout. In addition, the MFI at 33.3 nM with CD28 (human) [3] was found to be 2450 MFI; with human CTLA-4 (human) [4], 16200 MFI; in the assay with human PD-L1 (human) [5] it was 52400 MFI. Besides, the Fold change to WT CD80 in the assay with human CTLA-4 (human) [18] was found to be 11.7 fold; in the assay with human PD-L1 (human) [19], 318 fold; with CD28 (human) [20] it was 24 fold.

B10: variant CD80 IgV-Fc H18Y/A26E/E35D/M47L (Fc fusion)
chain: B1 chain with H18Y, A26E, M68V, G71A, Q85L, G90D
Consider B10, for which the IL-2 luciferase reporter, fold increase over WT CD80-IgV-Fc at 5.0 nM with CD28 (human) [11] and with human PD-L1 (human) [12] was 3.1 fold each time. Also, the Fold change to WT CD80 with CD28 (human) [3] came to 7.4 fold; with human CTLA-4 (human) [4], 17.7 fold; with human PD-L1 (human) [5], 228 fold. For the same molecule, the figures for the MFI at 33.3 nM with CD28 (human) [3], in the assay with human CTLA-4 (human) [4] and in the assay with human PD-L1 (human) [5] were 324 MFI, 24000 MFI and 9950 MFI, respectively. Besides, the Ratio of PDL1:CD28 with human PD-L1 (human) [13] amounted to 30.7.

B11: variant CD80 IgV-Fc V20I/M47V/T57I/V84I (Fc fusion)
chain: B1 chain with V20I, D35E, L47V, T57I, M68V, G71A, V84I, Q85L, G90D
Consider B11, for which the Fold increase in IL2 reporter signal (Jurkat/IL2 reporter assay) (fold vs WT CD80 IgV-Fc) with CD28 (human) [21] came to 0.45.

B12: variant CD80 IgV-Fc (inert) H18L/A26N/D46E/V68M/A71G/D90G (Fc fusion)
chain: B1 chain with H18L, A26N, D35E, D46E, L47M, Q85L
B12: the IL2-luciferase reporter, fold increase in RLU over WT CD80-IgV-Fc at 5.0 nM with CD28 (human) [16] and with human PD-L1 (human) [17] was 4.8 fold in each case. The MFI at 33.3 nM in the assay with CD28 (human) [3] turned out to be 7250 MFI; with human CTLA-4 (human) [4], 17000 MFI; with human PD-L1 (human) [5], 68000 MFI. Besides, the Fold change to WT CD80 with human CTLA-4 (human) [18] turned out to be 12.3 fold; with human PD-L1 (human) [19], 412 fold; in the assay with CD28 (human) [20], 71.1 fold.

B13: variant CD80 IgV-Fc E35D/M47L/V68M/D90G (Fc fusion)
chain: B1 chain with G71A, Q85L
For B13, the IL-2 luciferase reporter, fold increase over WT CD80-IgV-Fc at 5.0 nM with CD28 (human) [11] and with human PD-L1 (human) [12] was 1.82 fold each time. Further, the Fold change to WT CD80 with CD28 (human) [3] amounted to 77.8 fold; with human CTLA-4 (human) [4] it was 20.3 fold; with human PD-L1 (human) [5] it was 539 fold. In addition, the MFI at 33.3 nM came to 3410 MFI with CD28 (human) [3], 27600 MFI in the assay with human CTLA-4 (human) [4] and 23500 MFI with human PD-L1 (human) [5]. Also, in the assay with human PD-L1 (human) [13], the Ratio of PDL1:CD28 came to 6.9.

B14: variant CD80 IgV-Fc I30T/L70R (Fc fusion)
chain: B1 chain with I30T, D35E, L47M, M68V, L70R, G71A, Q85L, G90D
Molecule B14 yielded an MFI at 22.2 nM with human PD-L1 (human) [22] of 5160.

B15: variant CD80 IgV-Fc E35G/K54E/A71D/L72P (Fc fusion)
chain: B1 chain with D35G, L47M, K54E, M68V, G71D, L72P, Q85L, G90D
Consider B15, for which, in the assay with human PD-L1 (human) [23], the MFI at 22.2 nM amounted to 1580 MFI.

B16: CD80 IgV-Fc E35D/M47L/Y53F/V68M/A71G/K93R/E95V (Fc fusion)
chain: B1 chain with Y53F, Q85L, G90D, K93R, E95V
In the case of B16, the RLU at 5.0 nM: Fold Increase over WT CD80-IgV-Fc with CD28 (human) [7] and in the assay with human PD-L1 (human) [8] was 3.9 fold each time.

B17: variant CD80 IgV-Fc E35D/T57I/L70Q/A71D (Fc fusion)
chain: B1 chain with L47M, T57I, M68V, L70Q, G71D, Q85L, G90D
For the molecule B17, the Fold increase in IL2 reporter signal (Jurkat/IL2 reporter assay) (fold vs WT CD80 IgV-Fc) with CD28 (human) [21] amounted to 0.07.
